Measurements from the DeepSol protein solubility set.

Experiment: soluble on expression in E. coli; label from the status in PepcDB or PDB records
With “MGSDKIHHHHHHMSGFLAVKFPVKEASVADQQDFLGRFDAMSSKATATVIAHYSSSFTLASKLLSPKIRRDIEALYAMVRVADEVVDGAAAAAGCAPDAVAEILDNYERQVLLSLSVPFHTDPVIHAFGNTARKCGFEQAHIVAFFDSMRRDLSQTSYDPTQLDEYIYGSAEVIGLMCLKIFLQDSTASPQDRATMEHGARRLGAAFQKVNFLRDLAEDREGLGRSYLPVFTEEMRDEIVTDIREDLDAARLSIPLLPFGARTGVRAATDLYGCLVDNLESASLEDLKNGRIRVPSMKKASLATKAMWKEVFQK” the “soluble on expression in E. coli” value was “not soluble”. In the case of “MGSDKIHHHHHHMSGHKCSYPWDLQDRYAQDKSVVNKMQQKYWETKQAFIKATGKKEDEHVVASDADLDAKLELFHSIQRTCLDLSKAIVLYQKRICFLSQEENELGKFLRSQGFQDKTRAGKMMQATGKALCFSSQQRLALRNPLCRFHQEVETFRHRAISDTWLTVNRMEQCRTEYRGALLWMKDVSQELDPDLYKQMEKFRKVQTQVRLAKKNFDKLKMDVCQKVDLLGASRCNLLSHMLATYQTTLLHFWEKTSHTMAAIHESFKGYQPYEFTTLKVWKLEGPLENLEKSKVLFISQAKSIAESIIIPGLRMLKRELCPQQSLFLSFFLFFYCIRIQYNENLLQSKSAN”, the “soluble on expression in E. coli” value was “not soluble”. In the case of “MGSDKIHHHHHHMSGIEAFSPKGMLHECWSAQANDYAIVCGWALQGKTFLVGDVAGGLYAFEGISGKLIWQIKDIHKGGLLAMSIHPNGKTFATAGQDGHVNIWESQKGTSTKTLELGKGWVEHIKWSPDGKFLAVVFTKYVYVFDDKGQEHWRSEEHPSTVSAIAWSNSNELATACYGQVTFFDVVNDKINQKLEWRGSLVSMVLSPDGDIVACGSQDNSVHFWRRSTDQDSEMTGYPGKPSHLAFDQTGTVLATGGSDRVTVWSFQGDGPEGTVPGELMLHTEPISCLAFSHSGMLLASGSRDGSVFSWFLQKDGQGDPVGGAFAGDLVSQIAWHPDDTALAAINANGGITVWEFKVRTKTSPQGFG”, the “soluble on expression in E. coli” value was “not soluble”. In the case of “MGSDKIHHHHHHMSHANQAIPLDEEAIFDAMPMEEEGQFANHATPLIRNCWYVCARRDEVGRTPISRRLLDTDVVMYRTRDGRPVAMHNRCPHRAFPLAKGHVEGDRLVCGYHGMQFEPDGLCAHLPAISHVPANACVQTYPIADRGPLTWIWMGDANLADEALIPELPWLASSEWGSVTGDFHIKADYVSMHENLIDQTHFPFLHPGTVGTPEYARASMNATTEGDQVLIHRRLDNAPPPGIYGKPADIMHKNVDRTSEARFVSPAVHMAHARIFDPQPEPGKPSVYGYYITHCFTPESNHSIHYWWFNSRDYGIDDTDIDAFMYEASMQAYYEDVEALEWIMDVVLTDNEAQQFELSFAPDKPGLMARRIMHRLAMSERG”, the “soluble on expression in E. coli” value was “not soluble”. For “MGSDKIHHHHHHMSHVSYAEPPAQGWDIHCHTVFSDGTETPRTLVEQARKLGLHGVAIADHDTTAGWDEATEASEEIGLPLLLGTEITAVDEDVSVHMLAFQYDPSNEHISSMFANTRAARLRRTKRMVERLSQDFPITWDDVLAQVKEGERTTIGRPHIADALVAAGVYETRSDAFADAVSAKSKYYIPTPSPSTHEVIAAVKGAGGVVVAAHAGDPQRNRRLLSDEQLDAMIADGLDGLEVWHRGNPPEQRERLLTIAARHDLLVTGGSDWHGKGKPNGLGENLTDDDTVREILCRGVDLIGRVGSSHAA”, the “soluble on expression in E. coli” value was “not soluble”. In the case of “MGSDKIHHHHHHMSILYEERLDGALPDVDRTSVLMALREHVPGLEILHTDEEIIPYECDGLSAYRTRPLLVVLPKQMEQVTAILAVCHRLRVPVVTRGAGTGLSGGALPLEKGVLLVMARFKEILDINPVGRRARVQPGVRNLAISQAVAPHNLYYAPDPSSQIACSIGGNVAENAGGVHCLKYGLTVHNLLKIEVQTLDGEALTLGSDALDSPGFDLLALFTGSEGMLGVTTEVTVKLLPKPPVARVLLASFDSVEKAGLAVGDIIANGIIPGGLEMMDNLSIRAAEDFIHAGYPVDAEAILLCELDGVESDVQEDCERVNDILLKAGATDVRLAQDEAERVRFWAGRKNAFPAVGRISPDYYCMDGTIPRRALPGVLEGIARLSQQYDLRVANVFHAGDGNMHPLILFDANEPGEFARAEELGGKILELCVEVGGSISGEHGIGREKINQMCAQFNSDEITTFHAVKAAFDPDGLLNPGKNIPTLHRCAEFGAMHVHHGHLPFPELERF”, the “soluble on expression in E. coli” value was “not soluble”. For “MGSDKIHHHHHHMSKIGETPLDMGLKDAIIGIFIWNKEKGIFEPFENRLRKKARALLEYYTDLANDELKPYVISKTIIDNVVDEIKDKTLIPLPNEPLRVAFPNCTLEWKISHGRYVPSFVLAEERTPEHFAFHYIPHKIHLEELVKINEEVLSARDIPIDLIEDLARRLCPKSLEVFKQWANEKWVTLFEIIGYTLFPKIEFRKAFMILGPRGTGKSTFINLIKKLLGRGNVVNIPLHILFGDKNRFVLAELYHKLVNAVSETKEYNLDDMDTLKVLTGGDRITADVKFKDPITFTPYAKLVIASNKPPTIRDKNDMAFWHRWLIIEFPNQFEDNTAWGDKTFTEDELEGILTVSILAFSRVLLHGKFDFEQTEEEVRGIWLSTIDYVYKFVKEKLKHGEIMITKNADDYVRVKELYRMYLEYCSTNGYNATTYKGFVRRLRDYFNLTVVMKNVEGKRFRAVVGIKINTVQTNETTGGDYGEFLNYILKNNHMIKEFADLVRDFGSTEKANVFIDFCTKKNMCFSRGIDAWEISIQPRGFSFL”, the “soluble on expression in E. coli” value was “not soluble”. With “MGSDKIHHHHHHMSKLSNLITQYCPEGVEYKTLGECGKFYGGLTGKSKKDFEDGNSKFITYKNVYSNPALCLDVEDKVRIEPGERQRTLEYGDIVFTGSSETPDECGISSVVAEIPEENLYLNSFCFIFRFDDPSILLPDFAKHLFRSSELRYQIGKTASGVTRYNVSKKLMGKVSFPVPPLEVQREIVRVLDSFTLLTAELTAELTARKQQYEFYRDYLLNGNSDYDICNLGDVCDVVAGGTPSRKVSDYWEDGCIPWLGSTVCKNKKNVDEPTEFITELGLEKSSAKMMKKDTTLIALVGATIGKVAFTTFDVAINQNIAGVYPKDTSKINPSYIYYACTTLYPHFLNLTQGSKLAMANLTFVRGLKISVPPIDVQNHLVNVLDNFESITSDLSIGLPAEIEARKKQYEYYRDALLTYASTGKIIARQTEHN” the “soluble on expression in E. coli” value was “not soluble”. In the case of “MGSDKIHHHHHHMSKLVTIYGGSGFVGRYIARRMAKEGWRVRVAVRRPNEAMHVKPYGAVGQVEPVLCNLRDDNSVAQTMRGADAVVNCVGVLNELGRNSFDAVQAEGAERIARIAAEQGVARMVHVSAIGADGDSDSAYSRSKALGEAGVLRHMPDAMILRPSVIFGTEDQFFNRFAGMTRFGPFLPVVGAETRFQPVYVDDVARAAVKGVLGQAPGGVYELGGPDVETFRALMQRMLGVIHRKRIIIALPFFAARIMAGMLDVAKFVSFQLFPNNILTRDQLKNLRRDNVVSEGAKGFADLGIAPEPMDTVLPAYLWKFRPNGQYDEIQASAKNLRA”, the “soluble on expression in E. coli” value was “not soluble”. For “MGSDKIHHHHHHMSKRMIITVGDARVGKSTVIKLLLEIFAQQGKRIKVYNQESFPVFQAYEHIATIKKFNLSNDDADAITDDLNHPELDVMIVDMPGQDIEKVIQYIESASLFEVVVKFGWNLTFLQPISHRKDCIYYLNAIIQNATNNANYVVVKNYHFAPEFREYEEKMRKKLLIIGGTEVELMALHRNHYQAMEKADKPYSQVCQDLSIILFWRSFIFQWIKKFHHSVMNNHLAIKYLGLD”, the “soluble on expression in E. coli” value was “not soluble”. In the case of “MGSDKIHHHHHHMSLHSDILVVGAGPAGLSFAAELAGSGLKVTLIERSPLTVLQNPPYDGREIALTHFSREIMQRLGMWDKIPENEIYPLRDAKVLNGRSDYQLHFPQPTEARGEPADCLGYLISNHNIRRAAYEVVSQLDNVSILTDTAVKEVKTSDNEAQVFLENGDILTARLLLAADSRFSQTRRQLGISSDMHDYSRTMFVCRMKHTLSNQHTAYECFHYGRTIALLPLEKRLTNTVITVDTDKINSVQNLSPEELAASVKEQLKGRLGDMELVSSIHHYPLVGMIAKRFYGKRSALIGDAAVGMHPVTAHGFNLGLSSADILAKLILEAEQRGQDIGAASLLEKYSSKHMLHAHPLYHGTNMMLKLFTNETAPAKLLRGLVLRAGNNFPPLKKLITKQLTG”, the “soluble on expression in E. coli” value was “not soluble”. For “MGSDKIHHHHHHMSLRRIMVTAVRNLHPVTLLPSPRINILYGANGSGKTSVLEAVHLLGLARSFRSTRLNPVIQYEQAACTVFGEVQLTEGGTSNLGVSRERQGEFTIRIDGQNARSAAQLAELLPLQLINPDSFRLLEGAPKIRRQFLDWGVFHVEPRFLPAWQRLQKALRQRNSWLRHGTLDPASQAAWDRELCLASAEIDEYRRNYIKALKPVFERTLSELVELDGLTLSYYRGWDKDRELQEVLASSLLRDQQMGHTQAGPQRADLRLRLAGNNAADILSRGQQKLVVCALRIAQGHLVSQARRGHCIYLVDDLPSELDDQHRRALCRLLEELRCQVFITCVDHELLREGWQTETPVALFHVEQGRITQTHDHRE”, the “soluble on expression in E. coli” value was “not soluble”. For “MGSDKIHHHHHHMSNLKPDSVIACLDCPNHVQAVLEASMWASIRLQAPIGLLYSVPSLQQKAAVDYSGCLNIDDENTLLDQFTAKEHLSNCELKAQGKRLLHQASSYCEQQRHKIKTYTLHRHEKLDESINYVDDQAQLIVIGHHVTCKSTLSQLIRSSHCPILVTHAPFLPPTSALFAFDNSPTSHKMLNWLCKTPLVRALMIHIVMVSKENSENCDALREAYARLKQAGIKCKKTLLDCRDVTSALTYYQHDNDIGLLMTGAFAQPRLIELLKGSDTKKLLGSTTTPYLLFPKA”, the “soluble on expression in E. coli” value was “not soluble”. For “MGSDKIHHHHHHMSNNIFTVYGEVPELVEKKTKEIVNDYLGQKIDDFNYVKYNLYESDLTPIIEETLTMPFFSNKKAIVVKNSYVFTGEKFSKDLNHNSDELIKFLEKYDGENLIIFEVYQPKLDERKKLTKTLKKNAQLKKIEQMSEKELKHWIKNTLNNNYKDIKQDALELFIELTGVNYNIVSQELEKLILFIGERPIINKDDIDLIINRSLEQNVFLLTEYIQKGNKNKAIQLVNDLIIMKEEPIKLLALITSNYRLYYQCKILSQKGYSGQQIAKTVNAHPYRVKLALNQSRHYKLESLFNIINACAETDYKLKSSYMDKQLILELFILSL”, the “soluble on expression in E. coli” value was “not soluble”. For “MGSDKIHHHHHHMSNSLKASTTGLGIVDKARKRLGWTKTSTACWWQDAHTSRATLRRFWQGDRIQQEIFIAICQAVGINDWQNIAEIPNADFEETSTQYLDWDDAPDLESFYGRNQELAQLEEWILGDRCKLIIITGIAGIGKTALALALADLLQLKFDGLIWKTLHSVPSLVPLLDGLLHTFKQTPVDDIPSDTAKLIHHLQQRRCLLILDGLDESEKHYHQFIQQLSRAHHQSCIILTSREQPNIIESNTKTVRSLTLTGLPKDDAVKLLQARGFTGKEIGLSPLIQLYRGNPLALKLVTPLIQSVFGGNIAAFLSQNTIVIGDRLRAILKQQFEQLSDLEQNILYWLAIWQQPISFSRLQTHLLISLDPATVLDAIVSLERRSLLEKWICSDAPAFTLQPLVMKIATDELVERATQEIIQVMQSRDIADFKVLRTHWLLRPGSDDIVGDRILHQLQEKLWQIYGANLVQNLQQILLLLNDKSPLTIGYIACNITTIITKGV”, the “soluble on expression in E. coli” value was “not soluble”. With “MGSDKIHHHHHHMSNTNDLLNRINAKYSTMSKGHKLLATYITDNYDKAVFLTAAKMGETVGISESTVVRFATSLGYKGYPDFQKALEELVRNKLNSVQRMEVTYGRISQSQILETVLQSDRDKIKTTLEKIDADAFDLAVDTILQSRKIYIVGIRSCAPLASFLAFYMNLMFEDVCLLTTNSSSELFEQMVRIGKDDVIIGISFPRYSMRTLKALEFANNRSAKVITITDSIHSPMNLYSSCNLIADSDMASIVDSLVAPLSVINALIVALCMKKQNIVAKTLTELEDIWNEYQVYENDEIDYIDDSIKVHYAKLGDSQDE” the “soluble on expression in E. coli” value was “not soluble”.
